Data on 7 molecules can be found in paper PMC7611867.

Sequences and labels used below:
B1: 34 bp (dsDNA)
DNA 1: TAGCAATGTAATCGTCTATGACGTGTCATAGCGC
DNA 2: TAGCGCTATGACACGTCATAGACGATTACATTGC
B2: 31 bp (dsDNA)
DNA 1: TAGCAATGTAATCGTCTATGACGTGTAGCGC
DNA 2: TAGCGCTACACGTCATAGACGATTACATTGC
B3: 33 bp (dsDNA)
DNA 1: TAGCAATGTAATCGTCTATGACGTGCATAGCGC
DNA 2: TAGCGCTATGCACGTCATAGACGATTACATTGC
B4: 32 bp (dsDNA)
DNA 1: TAGCAATGTAATCGTCTATGACGTGATAGCGC
DNA 2: TAGCGCTATCACGTCATAGACGATTACATTGC
B5: 25 bp (dsDNA)
DNA 1: TAGCAATGTAATCGTCTATGACGTT
DNA 2: TAAACGTCATAGACGATTACATTGC
B6: 24 bp (dsDNA)
DNA 1: TAGCAATGTAATCGTCTATGACGT
DNA 2: TAACGTCATAGACGATTACATTGC
B7: 30 bp (dsDNA)
DNA 1: TAGCAATGTAATCGTCTATGACGTTAGCGC
DNA 2: TAGCGCTAACGTCATAGACGATTACATTGC

T1 sequence (P23179 whole entry, chain 1 of 4): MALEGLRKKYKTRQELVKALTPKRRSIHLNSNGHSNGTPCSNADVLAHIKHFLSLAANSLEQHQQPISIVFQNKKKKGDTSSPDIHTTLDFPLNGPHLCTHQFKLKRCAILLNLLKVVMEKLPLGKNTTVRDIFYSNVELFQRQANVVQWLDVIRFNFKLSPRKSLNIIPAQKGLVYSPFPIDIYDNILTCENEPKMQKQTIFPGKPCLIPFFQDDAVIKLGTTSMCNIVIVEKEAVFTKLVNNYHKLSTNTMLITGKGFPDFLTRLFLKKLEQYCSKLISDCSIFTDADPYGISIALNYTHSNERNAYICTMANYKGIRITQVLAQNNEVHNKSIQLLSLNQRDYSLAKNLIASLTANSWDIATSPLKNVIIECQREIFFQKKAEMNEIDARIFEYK
T1 sequence (Q02721 whole entry, chain 2 of 4): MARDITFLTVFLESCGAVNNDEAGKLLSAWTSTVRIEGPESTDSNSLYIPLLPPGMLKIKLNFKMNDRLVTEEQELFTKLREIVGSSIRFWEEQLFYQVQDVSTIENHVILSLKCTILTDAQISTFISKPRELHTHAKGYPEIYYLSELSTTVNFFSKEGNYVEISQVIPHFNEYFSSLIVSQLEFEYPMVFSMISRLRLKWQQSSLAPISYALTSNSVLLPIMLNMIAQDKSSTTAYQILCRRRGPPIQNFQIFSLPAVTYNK
T1 sequence (P33323 whole entry, chain 3 of 4): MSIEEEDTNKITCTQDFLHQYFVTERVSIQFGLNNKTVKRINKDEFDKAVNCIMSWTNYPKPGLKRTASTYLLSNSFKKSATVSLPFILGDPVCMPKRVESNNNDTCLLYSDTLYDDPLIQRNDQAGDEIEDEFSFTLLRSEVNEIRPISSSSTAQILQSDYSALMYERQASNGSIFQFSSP
T1 sequence (Q02793 whole entry, chain 4 of 4): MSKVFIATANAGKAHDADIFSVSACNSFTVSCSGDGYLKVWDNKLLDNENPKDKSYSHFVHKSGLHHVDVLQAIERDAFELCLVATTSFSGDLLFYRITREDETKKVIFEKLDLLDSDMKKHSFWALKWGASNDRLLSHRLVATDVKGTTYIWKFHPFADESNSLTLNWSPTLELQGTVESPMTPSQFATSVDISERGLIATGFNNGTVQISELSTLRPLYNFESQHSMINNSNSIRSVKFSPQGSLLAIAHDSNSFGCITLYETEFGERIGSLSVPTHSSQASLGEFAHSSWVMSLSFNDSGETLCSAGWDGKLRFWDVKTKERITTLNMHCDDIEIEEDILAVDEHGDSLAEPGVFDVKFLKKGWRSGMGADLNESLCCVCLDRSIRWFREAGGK

One series concerns the target T1, Spo11;Rec102;Rec104;Ski8 (Saccharomyces cerevisiae;Saccharomyces …, UniProt P23179;Q02721;P33323;Q02793 1-398;1-264;1-182;1-397, |||). Put plainly: EMSA.
As for B1, the binding result is given as “binds”.

The target in the next series is T1, Spo11;Rec102;Rec104;Ski8. Put plainly: EMSA. The source holds these as a separate data set.
In the case of B2, the binding result is “binds”.

In the case of B3, the binding result is “binds”.

B4: the binding result was “binds”.

Regarding B5, the binding result is reported as “binds”.

With B6, the binding result is given as “binds”.

Regarding B7, the binding result is recorded as “binds”.
